In PMC5193325, “Cytochrome c Negatively Regulates NLRP3 Inflammasomes” (PLoS ONE, 2016):

Molecular target: T1, NLRP3 (NLR family, pyrin domain containing 3), endogenous (human (endogenous in THP-1), UniProt Q96P20 1-1036)
T1 construct: NLRP3, endogenous in PMA-differentiated, LPS-primed THP-1 cells; also called NLPR3; source: endogenous, lysate or cytosolic fraction of LPS-primed THP-1 macrophage cells
Assay: co-IP; NLRP3 immunoprecipitated from lysates of LPS-primed THP-1 macrophage cells, stimulated with ATP (5 mM, 1 h) or not; immunoblot for cytochrome c; lysis buffer 20 mM HEPES pH 7.4, 0.5% Triton X-100, 0.5% CHAPS, 10% glycerol; 4°C
Details: partners not purified

T1 sequence (Q96P20 whole entry, the tested form may be a part): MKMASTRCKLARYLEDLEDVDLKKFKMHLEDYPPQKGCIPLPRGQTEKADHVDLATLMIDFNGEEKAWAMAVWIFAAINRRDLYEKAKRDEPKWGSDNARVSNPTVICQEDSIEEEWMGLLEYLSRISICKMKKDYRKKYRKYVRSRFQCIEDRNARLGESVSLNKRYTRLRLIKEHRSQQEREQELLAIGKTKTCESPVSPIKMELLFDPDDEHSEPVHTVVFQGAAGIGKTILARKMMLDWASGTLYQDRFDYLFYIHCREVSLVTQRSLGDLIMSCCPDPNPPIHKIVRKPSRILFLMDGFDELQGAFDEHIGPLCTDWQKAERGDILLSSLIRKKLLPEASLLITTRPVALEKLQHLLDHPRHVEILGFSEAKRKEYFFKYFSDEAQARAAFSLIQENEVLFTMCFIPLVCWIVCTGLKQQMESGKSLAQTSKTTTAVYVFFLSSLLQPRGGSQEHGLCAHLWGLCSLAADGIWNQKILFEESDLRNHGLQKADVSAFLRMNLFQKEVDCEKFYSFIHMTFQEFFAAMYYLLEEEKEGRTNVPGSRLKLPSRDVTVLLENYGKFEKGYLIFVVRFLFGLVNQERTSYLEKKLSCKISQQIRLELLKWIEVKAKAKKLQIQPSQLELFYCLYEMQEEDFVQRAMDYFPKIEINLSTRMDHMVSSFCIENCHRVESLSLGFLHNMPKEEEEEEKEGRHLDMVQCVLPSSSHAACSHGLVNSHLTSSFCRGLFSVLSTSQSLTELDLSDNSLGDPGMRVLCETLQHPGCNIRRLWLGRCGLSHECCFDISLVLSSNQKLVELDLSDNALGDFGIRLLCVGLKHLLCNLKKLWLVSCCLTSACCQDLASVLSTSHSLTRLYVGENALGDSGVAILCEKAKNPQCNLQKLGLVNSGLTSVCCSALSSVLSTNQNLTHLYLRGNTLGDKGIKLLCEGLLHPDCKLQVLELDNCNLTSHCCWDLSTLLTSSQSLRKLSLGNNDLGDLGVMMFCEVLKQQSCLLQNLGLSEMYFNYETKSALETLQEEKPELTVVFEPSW

B1: cytochrome c, endogenous (natural protein)
chain: not shown
notes: cytochrome c, endogenous in PMA-differentiated, LPS-primed THP-1 cells; source: endogenous, lysate or cytosolic fraction of LPS-primed THP-1 macrophage cells
fold more cytochrome c co-precipitated with NLRP3 after ATP against no ATP: ~3 fold
